Data: PMC9143595

Biological target: SARS-CoV-2 spike protein S1 subunit (SARS-CoV-2, UniProt P0DTC2 14-685)
Assay: QCM
Conditions: protein: commercial

| Binder | Ka |
| --- | --- |
| RBD-1C (CoV2-RBD-1) (ssDNA, 5'-amino-modifier C6) DNA: CAGCACCGACCTTGTGCTTTGGGAGTGCTGGTCCAAGGGCGTTAATGGACA | 1 10^5 M-1 |
| RBD-1CM1 (ssDNA, 5'-amino-modifier C6) DNA: CAGCACCGACCTTGTGCTTTGGGAGTGCTGGTCTAAGGGCGTTAATAGACA | 1.2 10^5 M-1 |
| RBD-1CM2 (ssDNA, 5'-amino-modifier C6) DNA: CAGCACCGACCTTGTGCTTTGGGAGTGCTGGTCCAAGGGCCTTGATGGACA | 1.2 10^5 M-1 |
